{"source": "paper PMC5932363", "about": "“Proteinase 3 Interferes With C1q-Mediated Clearance of Apoptotic Cells” (Frontiers in Immunology, 2018)", "target": "T1, C1q (complement protein C1q, intact) (human, UniProt P02745 23-245; P02746 28-253; P02747 29-245)", "T1 construct": "complement C1q subunit A, human; C1q purified from human serum; a hexamer of heterotrimers; complement C1q subunit B, human; complement C1q subunit C, human; also called intact C1q; whole C1q; source: purified from human serum; copies: 6 + 6 + 6", "T1 sequence (P02745 23-245, chain 1 of 3)": "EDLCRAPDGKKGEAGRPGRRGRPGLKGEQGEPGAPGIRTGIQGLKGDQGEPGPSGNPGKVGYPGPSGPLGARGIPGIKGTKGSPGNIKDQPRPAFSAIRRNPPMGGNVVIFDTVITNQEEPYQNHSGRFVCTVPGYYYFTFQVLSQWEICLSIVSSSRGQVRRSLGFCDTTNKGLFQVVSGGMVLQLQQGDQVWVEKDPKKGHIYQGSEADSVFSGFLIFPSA", "T1 sequence (P02746 28-253, chain 2 of 3)": "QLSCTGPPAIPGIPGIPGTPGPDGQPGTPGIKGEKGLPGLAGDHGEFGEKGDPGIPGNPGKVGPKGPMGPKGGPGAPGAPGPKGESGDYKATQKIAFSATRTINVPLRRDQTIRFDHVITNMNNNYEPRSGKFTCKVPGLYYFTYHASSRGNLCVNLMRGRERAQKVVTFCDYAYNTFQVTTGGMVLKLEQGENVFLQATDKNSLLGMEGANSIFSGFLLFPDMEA", "T1 sequence (P02747 29-245, chain 3 of 3)": "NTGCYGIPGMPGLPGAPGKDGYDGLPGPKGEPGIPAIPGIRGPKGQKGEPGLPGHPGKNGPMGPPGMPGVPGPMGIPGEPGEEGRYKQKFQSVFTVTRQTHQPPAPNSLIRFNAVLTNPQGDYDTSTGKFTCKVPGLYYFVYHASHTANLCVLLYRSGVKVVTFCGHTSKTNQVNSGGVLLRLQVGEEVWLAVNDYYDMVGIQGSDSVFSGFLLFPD", "test": "SPR; BIAcore 3000; PR3 immobilised on a CM5 chip by amine coupling; C1q, gC1q or cC1q as soluble analytes; 50 mM Tris, 150 mM NaCl, 2 mM Ca2+, 0.005% surfactant P20, pH 7.4; flow 20 µl/min; global fit to a 1:1 Langmuir model; apparent KD from koff/kon", "conditions": "both partners purified", "data": [{"binder": "Proteinase 3 (PR3), purified (enzyme, UniProt P24158 28-248, looked up, proteinase 3 (myeloblastin), neutrophil-derived serine protease; also called purified PR3; immobilized PR3; source: bought: Athens Research and Technology) IVGGHEAQPHSRPYMASLQMRGNPGSHFCGGTLIHPSFVLTAAHCLRDIPQRLVNVVLGAHNVRTQEPTQQHFSVAQVFLNNYDAENKLNDVLLIQLSSPANLSASVATVQLPQQDQPVPHGTQCLAMGWGRVGAHDPPAQVLQELNVTVVTFFCRPHNICTFVPRRKAGICFGDSGGPLICDGIIQGIDSFVIWGCATRLFPDFFTRVALYVDWIRSTLR", "values": [{"measurement": "Kd", "value": 190, "unit": "nM"}, {"measurement": "koff", "value": 0.00151, "unit": "s⁻¹"}, {"measurement": "kon", "value": 7800, "unit": "M⁻¹ s⁻¹"}]}]}
